Source: publication PMC8053095
Read-outs that look alike come from different tables or passages of the source.

Tests used:
ToPif1 [1] = biological target: T1, ToPif1 (Thermus oshimai, UniProt K7RJ88 64-507); test: crystal structure
T1 sequence: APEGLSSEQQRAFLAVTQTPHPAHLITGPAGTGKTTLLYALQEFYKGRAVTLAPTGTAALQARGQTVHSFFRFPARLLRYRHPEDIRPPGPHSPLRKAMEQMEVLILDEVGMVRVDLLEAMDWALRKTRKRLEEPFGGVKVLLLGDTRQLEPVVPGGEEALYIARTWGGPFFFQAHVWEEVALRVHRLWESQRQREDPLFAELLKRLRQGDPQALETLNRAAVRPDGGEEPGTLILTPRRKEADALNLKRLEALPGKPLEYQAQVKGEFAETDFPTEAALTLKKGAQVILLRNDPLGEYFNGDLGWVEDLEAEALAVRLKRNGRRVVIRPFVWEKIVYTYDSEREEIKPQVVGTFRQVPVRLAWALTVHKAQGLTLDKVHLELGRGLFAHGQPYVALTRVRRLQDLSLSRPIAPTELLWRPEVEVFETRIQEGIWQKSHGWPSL

ToPif1 S69C/S405C [2] = biological target: T2, ToPif1 S69C/S405C (Thermus oshimai, UniProt K7RJ88 64-507, S69C;S405C); test: smFRET
T2 sequence: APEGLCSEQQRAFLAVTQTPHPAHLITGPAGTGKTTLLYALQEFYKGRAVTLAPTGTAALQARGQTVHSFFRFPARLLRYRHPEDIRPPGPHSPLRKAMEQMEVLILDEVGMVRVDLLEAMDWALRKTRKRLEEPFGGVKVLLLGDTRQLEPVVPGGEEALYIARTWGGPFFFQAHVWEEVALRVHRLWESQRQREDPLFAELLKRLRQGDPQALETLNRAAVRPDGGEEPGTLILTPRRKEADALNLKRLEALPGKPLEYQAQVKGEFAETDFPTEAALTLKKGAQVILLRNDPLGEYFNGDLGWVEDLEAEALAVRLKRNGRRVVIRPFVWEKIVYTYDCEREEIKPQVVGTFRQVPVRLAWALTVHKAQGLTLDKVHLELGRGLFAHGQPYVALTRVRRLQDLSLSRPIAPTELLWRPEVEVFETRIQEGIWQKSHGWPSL

ToPif1 [3] = biological target: T1, ToPif1; test: DLS
ToPif1 S69C/S405C [4] = biological target: T2, ToPif1 S69C/S405C; test: smFRET; remark: listed apart in the source

B1: S7D11 (dsDNA)
DNA 1: TTTTTTTCGCAGTGCTCG
DNA 2: CGAGCACTGCG
Q: Does B1 bind (ToPif1 [1])?
A: binds

B2: S8D38 (dsDNA)
DNA 1: TTTTTTTTTCCGGATCACCATGGCGGACTCTCTGCTCTCGTGCTCC
DNA 2: GGAGCACGAGAGCAGAGAGTCCGCCATGGTGATCCGGA
Q: Does B2 bind (ToPif1 S69C/S405C [2])?
A: binds

Q: Does TTTTTTTTTTTTTTT (ssDNA) [dT15] bind (ToPif1 [3])?
A: binds

Q: Does TTTTTTTT (ssDNA) [dT8] bind (ToPif1 S69C/S405C [4])?
A: binds
